Assay results: article PMC6539845 (International Journal of Molecular Sciences, 2019)
“And” between values parts separate entries of the source, which are not always exact repeats. Identical values can stand only once.

B1: human proteasome α1 subunit (natural protein)
chain: not shown
notes: proteasome subunit α1 (PSMA6), human, residues 1-246; subcloned into the NdeI and SalI sites of pET28b; also called PSMA6
B2: human proteasome α4 subunit (natural protein, UniProt O14818 1-248, looked up)
chain: MSYDRAITVFSPDGHLFQVEYAQEAVKKGSTAVGVRGRDIVVLGVEKKSVAKLQDERTVRKICALDDNVCMAFAGLTADARIVINRARVECQSHRLTVEDPVTVEYITRYIASLKQRYTQSNGRRPFGISALIVGFDFDGTPRLYQTDPSGTYHAWKANAIGRGAKSVREFLEKNYTDEAIETDDLTIKLVIKALLEVVQSGGKNIELAVMRRDQSLKILNPEEIEKYVAEIEKEKEENEKKKQKKAS
notes: proteasome subunit α4 (PSMA7), human, residues 1-248; subcloned into the NdeI and SalI sites of pET28b; also called PSMA7
B3: human proteasome α5 subunit (natural protein, UniProt P28066 1-241, looked up)
chain: MFLTRSEYDRGVNTFSPEGRLFQVEYAIEAIKLGSTAIGIQTSEGVCLAVEKRITSPLMEPSSIEKIVEIDAHIGCAMSGLIADAKTLIDKARVETQNHWFTYNETMTVESVTQAVSNLALQFGEEDADPGAMSRPFGVALLFGGVDEKGPQLFHMDPSGTFVQCDARAIGSASEGAQSSLQEVYHKSMTLKEAIKSSLIILKQVMEEKLNATNIELATVQPGQNFHMFTKEELEEVIKDI
notes: proteasome subunit α5 (PSMA5), human, residues 1-241; the vector holds a TEV protease cleavage site preceding the gene; also called PSMA5
B4: human proteasome α2 subunit (natural protein, UniProt P25787 1-234, looked up)
chain: MAERGYSFSLTTFSPSGKLVQIEYALAAVAGGAPSVGIKAANGVVLATEKKQKSILYDERSVHKVEPITKHIGLVYSGMGPDYRVLVHRARKLAQQYYLVYQEPIPTAQLVQRVASVMQEYTQSGGVRPFGVSLLICGWNEGRPYLFQSDPSGAYFAWKATAMGKNYVNGKTFLEKRYNEDLELEDAIHTAILTLKESFEGQMTEDNIEVGICNEAGFRRLTPTEVKDYLAAIA
notes: proteasome subunit α2 (PSMA2), human, residues 1-234; subcloned into the NdeI and XhoI sites of pRSFDuet-1; no tag is named; also called PSMA2
B5: human proteasome α3 subunit (natural protein, UniProt P25789 1-261, looked up)
chain: MSRRYDSRTTIFSPEGRLYQVEYAMEAIGHAGTCLGILANDGVLLAAERRNIHKLLDEVFFSEKIYKLNEDMACSVAGITSDANVLTNELRLIAQRYLLQYQEPIPCEQLVTALCDIKQAYTQFGGKRPFGVSLLYIGWDKHYGFQLYQSDPSGNYGGWKATCIGNNSAAAVSMLKQDYKEGEMTLKSALALAIKVLNKTMDVSKLSAEKVEIATLTRENGKTVIRVLKQKEVEQLIKKHEEEEAKAEREKKEKEQKEKDK
notes: proteasome subunit α3 (PSMA4), human, residues 1-261; the vector holds a TEV protease cleavage site preceding the gene; also called PSMA4

Target: the molecule itself
Assay: native MS; single proteins, 5–20 μM monomers, 150 mM ammonium acetate (pH 6.8–8.0), nanoflow electrospray
Details: not given
With B1 the “stoichiometry N” value was 2.
With B2 the “stoichiometry N” value was 2.
B3 was tested, and the “stoichiometry N” value was 2.
In the case of B4, the “stoichiometry N” value is reported as 2.
In the case of B5, the “stoichiometry N” value is reported as 2.

What follows are binders tested against T1, human proteasome α7 subunit, wild type (human, UniProt P25788 1-255) (assay: native MS; α4 or α6 (4 μM monomers) mixed with α7 (2 μM tetradecamer), 20 °C, 1 h, 150 mM ammonium acetate). Details: both partners purified.
T1 construct: proteasome subunit α7 (PSMA3), human, residues 1-255; wild-type construct in pRSFDuet-1; also called PSMA3; α7 homotetradecamer; copies: 14
T1 sequence (P25788 whole entry, the tested form may be a part): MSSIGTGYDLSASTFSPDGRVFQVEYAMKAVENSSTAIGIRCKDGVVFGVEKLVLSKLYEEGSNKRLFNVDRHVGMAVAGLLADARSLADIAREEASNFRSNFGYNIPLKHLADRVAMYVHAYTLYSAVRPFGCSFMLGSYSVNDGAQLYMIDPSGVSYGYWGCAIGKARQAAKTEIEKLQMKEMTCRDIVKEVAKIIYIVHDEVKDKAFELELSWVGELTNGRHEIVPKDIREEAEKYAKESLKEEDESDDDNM
B2 was tested, and the “stoichiometry N” value was 7 α7 subunits per α4 and 14 α7 subunits per α4.
